Biological target: influenza HA proteins mixture of A/California/7/09 (H1N1), A/Victoria/210/09 (H3N2), and B/Brisbane/
Assay: SPR
Settings: natural protein

Substance: Pseudomonas taiwanensis lectin (PTL)
- Kd: 8.9 nM
- koff: 9.1e-06 s⁻¹
